# ± gives the standard error. Variants at the floor of the assay were thinned out.
# B1: glmS ribozyme (parent)
# chain: AUAAAAGCGCCAGAACUACAGAAAUGUAGUUGACGAGGAGGAGGUUUAUCGAAUUUUCGGCGGAUGCCUCCAAA
# Columns and labels:
# Details in all cases: with glucosamine-6-phosphate
# glucosamine-6-phosphate [1] = variants of: B1; experiment: self-cleavage kobs at 160 uM GlcN6P; higher = faster cleavage; RNA array
# In short: (§1)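 kcat and KM were obtained from weighted Michaelis–Menten fits across concentrations of kobs values. Those came from one- or two-exponential decay fits to per-tile medians normalised to baseline and to non-cleaving reference variants. The variants were barcoded ribozymes transcribed in situ by E. coli RNA polymerase on sequenced MiSeq chips and tracked through a hybridised Cy3 probe at 37 °C, with 40 μM to 10 mM glucosamine-6-phosphate in HEPES/KCl/Mg(OAc)2 buffer flowed in.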
# glucosamine-6-phosphate [2] = variants of: B1; experiment: self-cleavage kobs at 640 uM GlcN6P; higher = faster cleavage; RNA array
# In short: as §1
# glucosamine-6-phosphate [3] = variants of: B1; experiment: self-cleavage kobs at 2500 uM GlcN6P; higher = faster cleavage; RNA array
# In short: as §1
# glucosamine-6-phosphate [4] = variants of: B1; experiment: self-cleavage kobs at 10000 uM GlcN6P; higher = faster cleavage; RNA array
# In short: as §1
Variant,self-cleavage kobs at 160 uM GlcN6P (glucosamine-6-phosphate [1]),self-cleavage kobs at 640 uM GlcN6P (glucosamine-6-phosphate [2]),self-cleavage kobs at 2500 uM GlcN6P (glucosamine-6-phosphate [3]),self-cleavage kobs at 10000 uM GlcN6P (glucosamine-6-phosphate [4])
AUAAAAGCGCCAGACCUACAGAAAUGUAGUUGACGAGGAGGAGGUUUAUCGAAUUUCCGGCCGAUGCCUCCAAA [A15C U57C G62C],< 1e-05 s⁻¹,< 1e-05 s⁻¹,–,–
AUAAAACCGCCAGAAUUACAGAAAUGUAGUUGACGAGGAGGAGUUUUAUCGAAUUUUCGGCGGAUGCCUCCAAA [G7C C16U G44U],< 1e-05 s⁻¹,–,–,–
AUAAAGGCGCCAGAACUACAGAAAUGUAGUUGACGAGGAGGCGGUUUAUCGAAUUUUCGGCGGAUGCCUCCAAA [A6G A42C],< 1e-05 s⁻¹,< 1e-05 s⁻¹,< 1e-05 s⁻¹,< 1e-05 s⁻¹
AUAAAAGCGCCAGAACUACAGAAAUGUAGUUAACGAGGAGGAAGUUUAUCGAAUUUUCGGCGCAUGCCUCCAAA [G32A G43A G63C],< 1e-05 s⁻¹,–,< 1e-05 s⁻¹,–
AUAAAAGCGCCAGAACUACAGAAAUGUAGUUGACGAGGAUGAGGUUUAUCGAAUUUUCGGCGGUGGCCUCGAAA [G40U A64U U65G C71G],< 1e-05 s⁻¹,< 1e-05 s⁻¹,–,–
AUAAAAGCACCAGAACUACAGAAAUGUAGUUGAAGAGGAGGAGGUUUAUCGAAUUUUCCGCGGAUGCCUCCAAA [G9A C34A G59C],< 1e-05 s⁻¹,< 1e-05 s⁻¹,< 1e-05 s⁻¹,–
AUAAAAGCGGCAGAACUACAGAAAUGUAGUAGACGAGGAGGAGGUUUAGCGAAUUUUCGGCGGAUGCCUCCAAA [C10G U31A U49G],< 1e-05 s⁻¹,–,–,–
AUAAAAGCUCCAGAACUACAGAAAUGUAGUUGACGAGGAUGAGGUGUAUCGAAUUUUCGGCCGAUGCCUCCAAA [G9U G40U U46G G62C],< 1e-05 s⁻¹,< 1e-05 s⁻¹,< 1e-05 s⁻¹,–
AUAAAAGCGCCAGAACUACAGAAAUGUAUUUGAUGAGGAGGAGGUGGAUCGAAUUUUCGGCGAAUGCCUCCAAA [G29U C34U U46G U47G G63A],< 1e-05 s⁻¹,< 1e-05 s⁻¹,< 1e-05 s⁻¹,–
AUAAAAGCUCCAGAACUACAGAAAUGUAGUAGACGAGGAGGAGGUUUAUCGAAUUUUCGGCGGAGGCCUCCAAA [G9U U31A U65G],< 1e-05 s⁻¹,< 1e-05 s⁻¹,< 1e-05 s⁻¹,–
AUAAAAGCGCCAGAACUACAGAAAUGUAGUUGACGAGGAGGCGGUUUGUCGAAUAUUCGGCGGAUGCCUCCAAA [A42C A48G U55A],< 1e-05 s⁻¹,< 1e-05 s⁻¹,–,–
AUAAAAGCGCCAGAACUACAGAAAUGUAGUUGACGGGGAGGAGGUUUAUCGAAUUUUCGCCGGAUGCCUCCAAA [A36G G60C],< 1e-05 s⁻¹,< 1e-05 s⁻¹,< 1e-05 s⁻¹,< 1e-05 s⁻¹
AUAAAAGCGCCAGAACUACAGAAAUGUAGUUGACGAGGAGAAGGUUUUUCGAAUUUUCGGCGGUUGCCUCAAAA [G41A A48U A64U C71A],< 1e-05 s⁻¹,–,< 1e-05 s⁻¹,–
AUAAAAGCACCAGAACUACAGAAAUGUAGUUCACGAGGAGGAGGUUUAUCGAAUUUUCGGCGGAUGUCUCCAAA [G9A G32C C67U],< 1e-05 s⁻¹,< 1e-05 s⁻¹,–,–
AUAAAAGCGCCAGAACUACAGAAAUGUAGUUGACGAGCAGGAGGUUUAUCGAAUAUUCGGCGGAUGCCUCCAAA [G38C U55A],< 1e-05 s⁻¹,< 1e-05 s⁻¹,–,–
AUAAAUUCGCCAGAACUACAGAAAUGUAGUUGACUAGGAGGAGGUUUAUCGAAAUUUCGGCGGAUGCCUCCAAA [A6U G7U G35U U54A],< 1e-05 s⁻¹,< 1e-05 s⁻¹,< 1e-05 s⁻¹,–
AUAAAAGGGCUAGAACUACAGAAAUGUAGUUGACGAGGAGGAGGUUUUUCGAAUUUGCGGCGGAUGCCUCUAAA [C8G C11U A48U U57G C71U],< 1e-05 s⁻¹,–,–,–

Variant,self-cleavage kobs at 160 uM GlcN6P (glucosamine-6-phosphate [1]),self-cleavage kobs at 640 uM GlcN6P (glucosamine-6-phosphate [2]),self-cleavage kobs at 2500 uM GlcN6P (glucosamine-6-phosphate [3]),self-cleavage kobs at 10000 uM GlcN6P (glucosamine-6-phosphate [4])
AUAAAAGCGCCAGAACUACAGAAAUGUAAUUAACGAGGAGGAGGUUUAUCGAAUUUUCGGCUGAUGCCUCCAAA [G29A G32A G62U],< 1e-05 s⁻¹,–,–,–
AUAAAAGCGCCAAAACUACAGAAAUGUAGUUGACGAGGAGGAGGUUUAUGGAAUUUUCGGCGGAUGCCUCCAAA [G13A C50G],0.000122 ± 3.1e-05 s⁻¹,0.000253 ± 0.00011 s⁻¹,4.08e-05 ± 1.9e-05 s⁻¹,–
AUAAAAGCGCCAGAACUACAGAAAUGUAGUUGACGAGGAGGAGGUUUAUCGAAUUUUGGGCGGAUGCGUCUAAA [C58G C68G C71U],9.65e-05 ± 2.3e-05 s⁻¹,–,–,–
AUAAAAGCGCCAGAACUACAGAAAUGUAGUUGACCGGGAGGAGGUUUAACGAAUUUUCGGCGGAUGCCUCCAAA [G35C A36G U49A],< 1e-05 s⁻¹,< 1e-05 s⁻¹,< 1e-05 s⁻¹,–
AUAAAGGCGCCAGAACUACAGAAAUGUAGUUGACGAGGAGGAGGUUUAUCGAAUUUUCGGCGGAUGUCUCUAAA [A6G C67U C71U],< 1e-05 s⁻¹,–,–,–
AUAAACGAGCCAGAACUACAGAAAUGUAGUCGACGAGGAGGAGGUUUAUCGAAUUUUCGGCGGAUGCCUCCAAA [A6C C8A U31C],< 1e-05 s⁻¹,–,< 1e-05 s⁻¹,–
AUAAAAGCGCUAGAACUACAGAAAUGUAGUUGACGAGGAGGGGGUUUAUCGAAAUUUCGGCGGAUGCCUCCAAA [C11U A42G U54A],3.87e-05 ± 1.6e-05 s⁻¹,0.000886 ± 0.00027 s⁻¹,–,–
AUAAAAGCGCCAGAACUACAGAAAUGUAGUUGACGUGGAGGAGGCUUAUCGAAUUUUCGGCGGAUGCCUCCAAA [A36U U45C],< 1e-05 s⁻¹,< 1e-05 s⁻¹,< 1e-05 s⁻¹,< 1e-05 s⁻¹
AUAAAUGCGCCAGAACUACAGAAAUGUAGUUGAAGAGGAGGAGGUUUAUCGAAUUUUCGGCGCAUGCCUCCAAA [A6U C34A G63C],< 1e-05 s⁻¹,< 1e-05 s⁻¹,< 1e-05 s⁻¹,–
AUAAAAGCGCCAGAACUACAGAAAUGUAGUUGACGAGCAGGAGGUUUAUCGAAUUUUCGGUGGAUGCCUCUAAA [G38C C61U C71U],< 1e-05 s⁻¹,–,–,–
AUAAAAGCGCCAGUACUACAGAAAUGUAGUUGACCAGGAGGAGGUUUAGCGAAUUUUCGGCGGAUGCCUCCAAA [A14U G35C U49G],< 1e-05 s⁻¹,–,–,–
AUAAAAGCGCCAGUACUACAGAAAUGUAGUUGCCGAGGAGGAGGUUUAUCGAAUUUUCAGCGGAUGCCUCCAAA [A14U A33C G59A],< 1e-05 s⁻¹,< 1e-05 s⁻¹,< 1e-05 s⁻¹,–
AUAAAAGCGCCAGAGCUACAGAAAUGUAGUUGACGAGGAUGAGGUUUAUCGAAUUUUCGGCGGAUGCCUACAAA [A15G G40U C70A],4.48e-05 ± 1.3e-05 s⁻¹,0.000328 ± 8e-05 s⁻¹,0.000773 ± 0.00016 s⁻¹,0.000531 ± 0.00014 s⁻¹
AUAAAAGCGCCAGAACUACAGAAAUGUAGUUGAUGAGGAGGAGGUUAAUCGAAUUUUCGGCGGAUGCCUCCAAA [C34U U47A],< 1e-05 s⁻¹,–,< 1e-05 s⁻¹,–
AUAAAAGCGCCAGAACUACAGAAAUGUAGUUGACGAGGAGGGGGUUUAUCCAAUUUUCGUCGGAUGCCUCCAAA [A42G G51C G60U],< 1e-05 s⁻¹,–,–,–
AUAAAAGCGCCAGAGCUACAGAAAUGUAGUUGACGAGGAGGAGGUUGAUCGAAUUUUCGGCGGAUGCGUCCAAA [A15G U47G C68G],0.000236 ± 8.5e-05 s⁻¹,–,3e-05 ± 1.3e-05 s⁻¹,–
